Experimental data reported in patent US20060234925A1.

Experiments:
[1] = target: caprine CXCR3 (caprine (goat)) (UniProt Q867B2); experiment: cell-based or functional assay
[2] = target: ovine CXCR3 on peripheral blood mononuclear cells (ovine); experiment: cell-based or functional assay

Chain of UniProt Q867B2 (Q867B2 whole entry): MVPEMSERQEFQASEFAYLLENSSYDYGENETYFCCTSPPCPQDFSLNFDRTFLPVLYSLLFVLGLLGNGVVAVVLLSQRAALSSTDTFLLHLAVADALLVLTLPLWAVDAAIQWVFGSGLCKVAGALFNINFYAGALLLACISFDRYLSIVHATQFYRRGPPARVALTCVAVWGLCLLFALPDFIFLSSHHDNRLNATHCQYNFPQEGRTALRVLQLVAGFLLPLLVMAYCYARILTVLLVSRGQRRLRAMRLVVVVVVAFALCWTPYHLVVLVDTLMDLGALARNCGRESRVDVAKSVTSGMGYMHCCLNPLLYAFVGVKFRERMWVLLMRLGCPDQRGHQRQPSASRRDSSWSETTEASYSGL

- chemotaxis of HTS-1 cells transfected with caprine CXCR3 [1]: 1 to 20 ng/mL
- chemotaxis of KU-1 cells transfected with caprine CXCR3 (modified Boyden chamber) [1]: 1 to 20 ng/mL
- chemotaxis of ovine PBMCs [2]: 0.2 to 5 ng/mL
Substance: recombinant caprine IP-10 (N-terminal histidine tag, mature region, expressed from pET-14b-cIP-10 in E. coli BL21-SI) (ligand)
